In FireProtDB (doi:10.1002/prot.20212):
“And” between values parts separate entries of the source, which are not always exact repeats. Equal entries are not always repeated.

Conditions: Capra hircus, 25 °C, GdnHCl, CD, Tris 20 mM, Na+ 80 mM, whole UniProt chain shown

B1: Alpha-lactalbumin wild type, P00712 (protein)
chain: MMSFVSLLLVGILFHATQAEQLTKCEVFQKLKDLKDYGGVSLPEWVCTAFHTSGYDTQAIVQNNDSTEYGLFQINNKIWCKDDQNPHSRNICNISCDKFLDDDLTDDIVCAKKILDKVGINYWLAHKALCSEKLDQWLCEKL
denaturant m value (pH 4.5, transition: 3): 1.34 kcal/mol/M and 1.19 kcal/mol/M | unfolding free energy (pH 4.5, transition: 3): 3.39 kcal/mol and 3.38 kcal/mol | denaturant m value (pH 4.5): 2.53 kcal/mol/M | unfolding free energy (pH 4.5): 6.79 kcal/mol | denaturant m value (pH 5.5): 2.75 kcal/mol/M | unfolding free energy (pH 5.5): 8.8 kcal/mol | denaturant m value (pH 7.5): 3 kcal/mol/M | unfolding free energy (pH 7.5): 10.2 kcal/mol
